Results on eight molecules are retold here after US20140341881A1 (DERMADIS, published 2014).

What is called kon is a measure of how fast the partners come together. Read a low kon as slower complex formation. A word on the % Inhibition: it is the relative decrease from the control value, in per cent. Low readings indicate a weak effect, high ones a strong effect.

The target of test [1] is T1, human kallikrein 14 (hK14) (human, UniProt Q9P0G3 25-251, limits assumed).
T1 construct: range counted on GenBank AAK48524 (printed), which may differ from the UniProt numbering; also called recombinant hK14
T1 sequence (looked up): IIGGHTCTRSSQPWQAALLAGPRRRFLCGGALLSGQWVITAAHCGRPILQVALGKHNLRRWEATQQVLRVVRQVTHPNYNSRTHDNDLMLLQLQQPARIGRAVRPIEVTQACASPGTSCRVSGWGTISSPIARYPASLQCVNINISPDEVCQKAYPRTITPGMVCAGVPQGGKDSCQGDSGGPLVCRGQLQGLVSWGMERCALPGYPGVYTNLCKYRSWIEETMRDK
Description: residual hK14 activity against [I0]/[E0]. Here is the method: SI values of rAAT, rACT, and their variants were determined with hK14 incubating the protease with varying concentrations of inhibitor. After an incubation of 4 hours at 37° C. in reaction buffer (50 mM Tris, pH 7.5, 150 mM NaCl, 0.05% Triton X-100, 0.01% BSA), the residual activity was detected by the addition of fluorescent substrate (Boc-Val-Pro-Arg-AMC). Fluorescence was measured with excitation at 340 nm (±15) and emission at 485 nm (±10) in black 96 well plates using a microplate fluorescence reader FLₓ800 (Bio-Tek Instruments, Inc.). The SI value corresponds to the abscissa intercept of the linear regression analysis of fractional velocity (velocity of inhibited enzyme reaction (vi)/velocity of uninhibited enzyme reaction (v₀)) vs. the molar ratio of the inhibitor to enzyme ([I₀]/[E₀]).

The target in test [2] is T1, human kallikrein 14 (hK14). Description: progress curve; * [I0]/[E0] < 5 * SI. Here is the method: The association rate constants for interactions of hK14, with different inhibitors were determined under pseudo-first order conditions using the progress curve method (Morrison and Walsh, 1988). Under these conditions, a fixed amount of enzyme (2 nM) was mixed with different concentrations of inhibitor (0-80 nM) and an excess of substrate (20 μM). Reactions were performed in reaction buffer (50 mM Tris pH 7.5, 150 mM NaCl, 0.05% Triton X-100, 0.01% BSA) at 37° C. for 45 min and the rate of product formation was measured using a FLₓ800 fluorescence 96-well microplate reader (Biotek, USA) Inhibition is considered to be irreversible over the course of reaction and the progression of enzyme activity is expressed as product formation (P), beginning at a rate (vz) and is inhibited over time (t) at a first-order rate (kobs), where the rate constant is only dependent on the inhibitor concentration.

The target of test [3] is T1, human kallikrein 14 (hK14). Kind of test: cell-based or functional assay.
The target of test [4] is human plasma kallikrein (PK) (human, UniProt P03952 20-638). Description: cell-based or functional assay.
Chain of human plasma kallikrein (PK) (P03952 20-638 limits assumed): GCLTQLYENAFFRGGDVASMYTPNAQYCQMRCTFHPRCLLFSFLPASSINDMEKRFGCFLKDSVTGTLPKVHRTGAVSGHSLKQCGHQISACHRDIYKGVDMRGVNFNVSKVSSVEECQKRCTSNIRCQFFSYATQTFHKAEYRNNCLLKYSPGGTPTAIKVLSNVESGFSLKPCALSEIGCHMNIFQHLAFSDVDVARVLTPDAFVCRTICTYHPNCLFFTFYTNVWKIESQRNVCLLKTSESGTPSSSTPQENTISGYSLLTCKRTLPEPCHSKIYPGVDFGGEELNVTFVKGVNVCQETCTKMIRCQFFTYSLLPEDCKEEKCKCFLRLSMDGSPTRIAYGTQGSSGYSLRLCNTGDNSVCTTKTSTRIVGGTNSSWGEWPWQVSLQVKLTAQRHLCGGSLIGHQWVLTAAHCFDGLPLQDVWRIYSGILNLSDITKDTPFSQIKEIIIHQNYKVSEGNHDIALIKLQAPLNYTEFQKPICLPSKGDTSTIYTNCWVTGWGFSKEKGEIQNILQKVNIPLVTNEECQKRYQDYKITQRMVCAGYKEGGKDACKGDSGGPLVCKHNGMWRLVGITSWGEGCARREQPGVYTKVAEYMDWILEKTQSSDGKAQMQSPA
Test [5] has as its target urokinase plasminogen activator (uPA) (UniProt P00749 21-431, limits assumed). Description: cell-based or functional assay.
In test [6] the target is T2, human neutrophil elastase (HNE) (human, UniProt P08246 30-247, limits assumed).
T2 sequence (looked up): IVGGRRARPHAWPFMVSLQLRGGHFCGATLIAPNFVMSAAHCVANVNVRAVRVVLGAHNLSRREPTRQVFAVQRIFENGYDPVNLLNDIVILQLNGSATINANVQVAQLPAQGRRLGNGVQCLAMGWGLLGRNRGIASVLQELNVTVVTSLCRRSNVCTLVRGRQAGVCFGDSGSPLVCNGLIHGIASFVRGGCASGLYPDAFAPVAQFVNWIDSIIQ
Description: cell-based or functional assay.

The target of a further test is thrombin. Description: cell-based or functional assay.
For test [7], the target named is human chymotrypsin (Chtr) (human, UniProt P17538 19-263). Kind of test: cell-based or functional assay.
Chain of human chymotrypsin (Chtr) (P17538 19-263): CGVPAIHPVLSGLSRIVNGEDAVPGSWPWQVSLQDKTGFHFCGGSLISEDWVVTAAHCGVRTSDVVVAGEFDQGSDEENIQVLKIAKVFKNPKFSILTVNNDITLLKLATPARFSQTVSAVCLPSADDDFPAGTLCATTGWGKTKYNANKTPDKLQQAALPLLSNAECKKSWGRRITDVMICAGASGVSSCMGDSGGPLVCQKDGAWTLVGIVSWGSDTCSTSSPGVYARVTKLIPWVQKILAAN

B1: AATC11g (other)
chain: MRGSHHHHHHGSDDPQGDAAQKTDTSHHDQDHPTFNKITPNLAEFAFSLYRQLAHQSNSTNIFFSPVSIATAFAMLSLGTKADTHDEILEGLNFNLTEIPEAQIHEGFQELLRTLNQPDSQLQLTTGNGLFLSEGLKLVDKFLEDVKKLYHSEAFTVNFGDTEEAKKQINDYVEKGTQGKIVDLVKELDRDTVFALVNYIFFKGKWERPFEVKDTEEEDFHVDQATTVKVPMMKRLGMFNIQHCKKLSSWVLLMKYLGNATAIFFLPDEGKLQHLENELTHDIITKFLENEDRRSASLHLPKLSITGTYDLKSVLGQLGITKVFSNGADLSGVTEEAPLKLSKAVHKAVLTIDEKGTEAAGAMFLEAIGRQTNPEVKFNKPFVFLMIEQNTKSPLFMGKVVNPTQK
Regarding B1, in test [1], the “SI (stoichiometry of inhibition)” value was 9. In test [2], the kon was 42000 M⁻¹ s⁻¹.

B2: ACTC11 (other)
chain: MRGSHHHHHHSRHPNSPLDEENLTQENQDRGTHVDLGLASANVDFAFSLYKQLVLKAPDKNVIFSPLSISTALAFLSLGAHNTTLTEILKGLKFNLTETSEAEIHQSFQHLLRTLNQSSDELQLSMGNAMFVKEQLSLLDRFTEDAKRLYGSEAFATDFQDSAAAKKLINDYVKNGTRGKITDLIKDLDSQTMMVLVNYIFFKAKWEMPFDPQDTHQSRFYLSKKKWVMVPMMSLHHLTIPYFRDEELSCTVVELKYTGNASALFILPDQDKMEEVEAMLLPETLKRWRDSLEFREIGELYLPKFSISRDYNLNDILLQLGIEEAFTSKADLSGITGARNLAVSQVVHKAVLDVFEEGTEASAATAVKITLRQTNVETRTIVRFNRPFLMIIVPTDTQNIFFMSKVTNPKQA
notes: also called rACTC11
Consider B2, for which, in test [1], the “SI (stoichiometry of inhibition)” value was 4.8. For the same molecule, the kon in test [2] came out at 65000 M⁻¹ s⁻¹. The “% Inhibition” value in test [3] was 100%; in test [4], 0%; in test [5], 0%; in test [6], 0%; in the test with thrombin, 0%; in test [7], 84%.

B3: ACTG1v (other)
chain: MRGSHHHHHHSRHPNSPLDEENLTQENQDRGTHVDLGLASANVDFAFSLYKQLVLKAPDKNVIFSPLSISTALAFLSLGAHNTTLTEILKGLKFNLTETSEAEIHQSFQHLLRTLNQSSDELQLSMGNAMFVKEQLSLLDRFTEDAKRLYGSEAFATDFQDSAAAKKLINDYVKNGTRGKITDLIKDLDSQTMMVLVNYIFFKAKWEMPFDPQDTHQSRFYLSKKKWVMVPMMSLHHLTIPYFRDEELSCTVVELKYTGNASALFILPDQDKMEEVEAMLLPETLKRWRDSLEFREIGELYLPKFSISRDYNLNDILLQLGIEEAFTSKADLSGITGARNLAVSQVVHKAVLDVFEEGTEASAATAVVGSLRSALVETRTIVRFNRPFLMIIVPTDTQNIFFMSKVTNPKQA
Regarding B3, the “SI (stoichiometry of inhibition)” value in test [1] came to 11.7. Also, the kon in test [2] amounted to 22000 M⁻¹ s⁻¹.

B4: AATC11 (other, human)
chain: HHHHHHEDPQGDAAQKTDTSHHDQDHPTFNKITPNLAEFAFSLYRQLAHQSNSTNIFFSPVSIATAFAMLSLGTKADTHDEILEGLNFNLTEIPEAQIHEGFQELLRTLNQPDSQLQLTTGNGLFLSEGLKLVDKFLEDVKKLYHSEAFTVNFGDTEEAKKQINDYVEKGTQGKIVDLVKELDRDTVFALVNYIFFKGKWERPFEVKDTEEEDFHVDQVTTVKVPMMKRLGMFNIQHCKKLSSWVLLMKYLGNATAIFFLPDEGKLQHLENELTHDIITKFLENEDRRSASLHLPKLSITGTYDLKSVLGQLGITKVFSNGADLSGVTEEAPLKLSKAVHKAVLTIDEKGTEAAGAMFLEAIPRQTNPEVKFNKPFVFLMIEQNTKSPLFMGKVVNPTQK
notes: mature
Turning to B4, in test [1], the “SI (stoichiometry of inhibition)” value turned out to be 2.8. Also, the “% Inhibition” value turned out to be 100% in test [3]; 8% in test [4]; 0% in test [5]; 0% in test [6]; 100% in the test with thrombin; 18% in test [7].

B5: AATG1g (other, human)
chain: HHHHHHEDPQGDAAQKTDTSHHDQDHPTFNKITPNLAEFAFSLYRQLAHQSNSTNIFFSPVSIATAFAMLSLGTKADTHDEILEGLNFNLTEIPEAQIHEGFQELLRTLNQPDSQLQLTTGNGLFLSEGLKLVDKFLEDVKKLYHSEAFTVNFGDTEEAKKQINDYVEKGTQGKIVDLVKELDRDTVFALVNYIFFKGKWERPFEVKDTEEEDFHVDQVTTVKVPMMKRLGMFNIQHCKKLSSWVLLMKYLGNATAIFFLPDEGKLQHLENELTHDIITKFLENEDRRSASLHLPKLSITGTYDLKSVLGQLGITKVFSNGADLSGVTEEAPLKLSKAVHKAVLTIDEKGTEAAGAMFLEGSLRGIPPEVKFNKPFVFLMIEQNTKSPLFMGKVVNPTQK
notes: mature
For the molecule B5, in test [1], the “SI (stoichiometry of inhibition)” value worked out at 2.3. For the same molecule, the “% Inhibition” value came out at 100% in test [3]; 100% in test [4]; 0% in test [5]; 0% in test [6]; 0% in the test with thrombin; 17% in test [7].

B6: AATF3 (other, human)
chain: HHHHHHEDPQGDAAQKTDTSHHDQDHPTFNKITPNLAEFAFSLYRQLAHQSNSTNIFFSPVSIATAFAMLSLGTKADTHDEILEGLNFNLTEIPEAQIHEGFQELLRTLNQPDSQLQLTTGNGLFLSEGLKLVDKFLEDVKKLYHSEAFTVNFGDTEEAKKQINDYVEKGTQGKIVDLVKELDRDTVFALVNYIFFKGKWERPFEVKDTEEEDFHVDQVTTVKVPMMKRLGMFNIQHCKKLSSWVLLMKYLGNATAIFFLPDEGKLQHLENELTHDIITKFLENEDRRSASLHLPKLSITGTYDLKSVLGQLGITKVFSNGADLSGVTEEAPLKLSKAVHKAVLTIDEKGTEAAGAMFLEAPDRHMPPEVKFNKPFVFLMIEQNTKSPLFMGKVVNPTQK
notes: mature
In the case of B6, the “SI (stoichiometry of inhibition)” value in test [1] was 11.7.

B7: AATG1 (other, human)
chain: HHHHHHEDPQGDAAQKTDTSHHDQDHPTFNKITPNLAEFAFSLYRQLAHQSNSTNIFFSPVSIATAFAMLSLGTKADTHDEILEGLNFNLTEIPEAQIHEGFQELLRTLNQPDSQLQLTTGNGLFLSEGLKLVDKFLEDVKKLYHSEAFTVNFGDTEEAKKQINDYVEKGTQGKIVDLVKELDRDTVFALVNYIFFKGKWERPFEVKDTEEEDFHVDQVTTVKVPMMKRLGMFNIQHCKKLSSWVLLMKYLGNATAIFFLPDEGKLQHLENELTHDIITKFLENEDRRSASLHLPKLSITGTYDLKSVLGQLGITKVFSNGADLSGVTEEAPLKLSKAVHKAVLTIDEKGTEAAGAMFLEGSLRSIPPEVKFNKPFVFLMIEQNTKSPLFMGKVVNPTQK
notes: mature
As for B7, in test [1], the “SI (stoichiometry of inhibition)” value turned out to be 3.6. In addition, the “% Inhibition” value in test [3] stood at 100%; in test [4] it was 100%; in test [5], 17%; in test [6], 0%; with thrombin, 51%; in test [7] it was 27%.

B8: AATE5 (other, human)
chain: HHHHHHEDPQGDAAQKTDTSHHDQDHPTFNKITPNLAEFAFSLYRQLAHQSNSTNIFFSPVSIATAFAMLSLGTKADTHDEILEGLNFNLTEIPEAQIHEGFQELLRTLNQPDSQLQLTTGNGLFLSEGLKLVDKFLEDVKKLYHSEAFTVNFGDTEEAKKQINDYVEKGTQGKIVDLVKELDRDTVFALVNYIFFKGKWERPFEVKDTEEEDFHVDQVTTVKVPMMKRLGMFNIQHCKKLSSWVLLMKYLGNATAIFFLPDEGKLQHLENELTHDIITKFLENEDRRSASLHLPKLSITGTYDLKSVLGQLGITKVFSNGADLSGVTEEAPLKLSKAVHKAVLTIDEKGTEAAGAMFLEANQRSSPPEVKFNKPFVFLMIEQNTKSPLFMGKVVNPTQK
notes: mature
In the case of B8, the “SI (stoichiometry of inhibition)” value in test [1] amounted to 10.
